Laboratory results taken from publication PMC4858740 (2016).

B2: CD45RO ECD (domain or fragment)
chain: QSPTPSPTDAYLNASETTTLSPSGSAVISTTTIATTPSKPTCDEKYANITVDYLYNKETKLFTAKLNVNENVECGNNTCTNNEVHNLTECKNASVSISHNSCTAPDKTLILDVPPGVEKFQLHDCTQVEKADTTICLKWKNIETFTCDTQNITYRFQCGNMIFDNKEIKLENLEPEHEYKCDSEILYNNHKFTNASKIIKTDFGSPGEPQIIFCRSEAAHQGVITWNPPQRSFHNFTLCYIKETEKDCLNLDKNLIKYDLQNLKPYTKYVLSLHAYIIAKVQRNGSAAMCHFTTKSAPPSQVWNMTVSMTSDNSMHVKCRPPRDRNGPHERYHLEVEAGNTLVRNESHKNCDFRVKDLQYSTDYTFKAYFHNGDYPGEPFILHHSTSYNSK

How the values were obtained:
Test in all cases: SPR
CD45RO ECD = target: B2
HAdV-D53 E3/49K = HAdV-D53 E3/49K (human adenovirus D53)
HAdV-D23 E3/49K = HAdV-D23 E3/49K (human adenovirus D23)
SLAMF6 ECD = target: T1, SLAMF6 ECD (human, UniProt Q96DU3 22-226)
T1 chain: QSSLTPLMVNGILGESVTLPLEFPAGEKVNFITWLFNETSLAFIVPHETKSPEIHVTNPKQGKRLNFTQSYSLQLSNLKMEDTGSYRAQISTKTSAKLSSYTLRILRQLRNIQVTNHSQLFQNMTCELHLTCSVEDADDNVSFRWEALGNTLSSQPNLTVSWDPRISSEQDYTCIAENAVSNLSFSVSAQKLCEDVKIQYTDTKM

SLAMF7 ECD = target: T2, SLAMF7 ECD (human, UniProt Q9NQ25 23-226)
T2 chain: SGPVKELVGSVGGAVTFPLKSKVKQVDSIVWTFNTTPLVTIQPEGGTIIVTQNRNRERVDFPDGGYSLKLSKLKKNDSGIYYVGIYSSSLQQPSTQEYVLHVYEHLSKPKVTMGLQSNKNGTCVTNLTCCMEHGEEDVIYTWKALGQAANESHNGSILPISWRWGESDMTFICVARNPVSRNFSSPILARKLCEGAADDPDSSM

SLAMF5 ECD = target: T3, SLAMF5 ECD (human, UniProt Q9UIB8 22-225)
T3 chain: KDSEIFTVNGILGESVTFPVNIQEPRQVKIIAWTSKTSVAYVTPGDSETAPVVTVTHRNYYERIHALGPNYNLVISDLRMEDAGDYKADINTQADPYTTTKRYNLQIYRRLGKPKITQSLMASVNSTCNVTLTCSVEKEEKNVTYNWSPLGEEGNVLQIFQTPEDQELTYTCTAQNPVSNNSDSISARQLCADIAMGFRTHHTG

SLAMF3 ECD = target: T4, SLAMF3 ECD (human, UniProt Q9HBG7 48-454)
T4 chain: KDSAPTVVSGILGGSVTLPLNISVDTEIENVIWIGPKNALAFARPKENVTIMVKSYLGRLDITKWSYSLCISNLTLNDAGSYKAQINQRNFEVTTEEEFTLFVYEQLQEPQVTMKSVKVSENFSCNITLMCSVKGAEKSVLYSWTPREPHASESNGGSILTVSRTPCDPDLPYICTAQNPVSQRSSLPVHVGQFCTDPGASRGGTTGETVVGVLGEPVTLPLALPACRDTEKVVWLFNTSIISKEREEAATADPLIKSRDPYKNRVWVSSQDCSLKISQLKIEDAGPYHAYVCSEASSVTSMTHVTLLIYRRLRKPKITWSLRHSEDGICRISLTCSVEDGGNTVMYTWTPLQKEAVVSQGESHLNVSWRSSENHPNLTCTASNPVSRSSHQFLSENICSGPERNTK

SLAMF8 ECD = SLAMF8 ECD (human, UniProt Q9P0V8 23-233)
SLAMF1 ECD = target: T5, SLAMF1 ECD (human, UniProt Q13291 21-237)
T5 chain: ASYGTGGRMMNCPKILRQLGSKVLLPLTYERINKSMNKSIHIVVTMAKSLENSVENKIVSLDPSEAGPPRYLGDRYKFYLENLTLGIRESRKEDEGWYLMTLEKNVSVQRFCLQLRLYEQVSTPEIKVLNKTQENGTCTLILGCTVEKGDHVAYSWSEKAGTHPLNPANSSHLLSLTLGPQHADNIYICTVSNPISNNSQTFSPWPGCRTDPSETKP

SLAMF4 ECD = target: T6, SLAMF4 ECD (human, UniProt Q9BZW8 22-229)
T6 chain: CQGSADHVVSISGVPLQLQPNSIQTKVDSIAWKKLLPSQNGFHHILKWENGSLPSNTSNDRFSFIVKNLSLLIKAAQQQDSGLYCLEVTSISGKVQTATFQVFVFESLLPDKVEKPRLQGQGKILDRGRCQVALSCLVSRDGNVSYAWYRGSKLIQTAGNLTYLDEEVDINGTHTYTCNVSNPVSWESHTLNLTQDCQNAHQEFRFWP

Chain of SLAMF8 ECD (Q9P0V8 23-233): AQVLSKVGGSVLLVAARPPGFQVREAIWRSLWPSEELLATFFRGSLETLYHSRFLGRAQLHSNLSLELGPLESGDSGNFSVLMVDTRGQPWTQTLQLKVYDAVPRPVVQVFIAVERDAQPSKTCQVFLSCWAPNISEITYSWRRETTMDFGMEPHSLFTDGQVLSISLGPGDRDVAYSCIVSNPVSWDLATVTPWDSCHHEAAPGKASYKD

B1: HAdV-D39 E3/49K (Fc fusion)
chain: KIDNEDVIGHWGKNITLVGPPEKPIEWHGPRVQLCDGSKILHPEFNHTCNEQNLTLIFLNNSFNGKYYGIRKDGFGMKQYTLKVIAPKASTRRPLSPPQQIDVRMGQNVTLVGPVDTPVNWHGPKHELCRGSQVIHPEVNHTCNEQNLTLLFVNYTFWGAYLGFNRYGTDRVHYEVTIIDGFKNAGQQKDETGQHNPSNKDRPNPKVKNPQRTKNTHKTNTQNKKDIEKDFRKGTNQTLVGPPGSKVDWYEGKNGDLVKLCDGKSGLKVSCNDQNITLINVNETYSGTYYGSNDEDHRQYKVTVYTIPRNETVKIQPHTTKGTTGGSTVNEQFALQQDNDRTNQNDEQIPSTT
**Q.** B1 was tested. Which Kd (CD45RO ECD) did it give?
**A.** 0.39 nM

**Q.** For B2, which Kd (HAdV-D53 E3/49K) is on record?
**A.** 0.21 nM

**Q.** And the Kd (HAdV-D23 E3/49K)?
**A.** 0.18 nM

B3: HAdV-A18 CR1α (Fc fusion)
chain: LSPEEEPNCRPPLTNIKVVLSTTHVTLQCKFFSTQLTWTFNGKNVAEANLKYHINKENITLHSPIHLGYYRCFATPCVQAFFLAPVINPRPATTAQPEKITKLISTAIATTATKGTEEIIYFSNFTTNLLLNCSCSNSLISWFANNTFCKAFFQGTTLYSAKLELCNTSTPSNLTLLPPFVAGRYFCIGAGGHPCQRHWKLVFRPTLVLPTSADPTLSPTPNF
**Q.** With B3 as the binder, how does the Kd (SLAMF6 ECD) read?
**A.** 631 nM

**Q.** And the Kd (SLAMF7 ECD)?
**A.** 137 nM

**Q.** What about the Kd (SLAMF5 ECD) of the same binder?
**A.** 2.1 nM

B4: HAdV-B1 CR1γ (Fc fusion)
chain: RSHLTVPVGSTCTLQGPQEGYVTWWRIYDNGGFARPCDQPGTKFSCNGRDLTIINITSNEQGFYYGTNYKNSLDYNIIVVPATTSAPRKSTFSSSSAKASTIPKTASAMLKLPKIALSNSTAAPNTIPKST
**Q.** What does the source list for B4?
**A.** Kd (SLAMF3 ECD): 86 nM; Kd (SLAMF7 ECD): 1.5 nM; Kd (SLAMF8 ECD): 60 nM; Kd (SLAMF1 ECD): 215 nM; Kd (SLAMF4 ECD): 280 nM

B5: HAdV-D51 E3/49K (Fc fusion)
chain: LLESKVVKIPYGSTYVLVGPRDPPVQWFGGGDFTMFCNGSKTHLQNIRHTCNEQNLTLLSVGYGHRGDYYGFRHDNTGRKHYKVIIEAPPPVTRKPLSEIKYVNVTMGQNLTLSGPPGTPVTWHGEGHKLCEGKNVFYRELNHTCTEKDLILLFVNRTHNGPYIGYNKEGTDREHYEVSVLDLMPIAGQGLDSKNKEQKIPPKRKSKDKVQEVNFPTGTDQTLIGPPGQKIDWHVSSNDGQFKKLCETKDGKHSCHGRNITIFNISRADEGSYYGSSHDGSSHYKVTVYDKSSFGKAKIKIDPYTTKGTTTENYEFELQQGNDESDDQKQIPSTT
**Q.** With B5 as the binder, how does the Kd (CD45RO ECD) read?
**A.** 0.06 nM

B6: HAdV-A18 CR1β (Fc fusion)
chain: QTAERPLKVVAEAGHNVTLPHLLPGFNKTGHVTWLIEIPDYGSAPSNKFVFSGQKLCEFASKNLTWSFPQLIFKCDNYDITLFWLKIENSAIYNVKNTIEATESNIYYQLTVIQINPPNCIITSKYLTEDYCHITINCTNSRYPNKVIFNNVTRSYYGYAKGSSTLPNYFTTSFNVSGITKTFKHNYPFSELCTYPSSENFYNSKETVST
**Q.** How did the Kd (SLAMF4 ECD) turn out when B6 was run?
**A.** 62 nM

B7: HAdV-B55 CR1β (Fc fusion)
chain: QTVVSIPLGHNYTLIGPPITSEVIWTKLGSVDYFDIICNKTKPIIVTCNIQNLTLINVSKVYSGYYYGYDRYSSQYRNYLVRVTQSKTTKMPNMAEIRSDDNSLETFTSSTTPDEKNIPDS
**Q.** For B7, which Kd (SLAMF6 ECD) is on record?
**A.** 13 nM

B8: HAdV-D30 E3/49K (Fc fusion)
chain: ADPILVSVDWGKNLKLEGPKETPVEWWGGKNIQQLCVGNQTKHKELRHTCNMQNITLLSVNTSFNGDYFGFKNDNSGMKHYKVTVIPPKPTTRKPLPPPHYVNATMGQNLTLVGPANIPVTWLSEFGTLCEGKKILHEELNHTCNEQNLTLLFVNMTHNGPYFGFGKDNVDREQYEVSIISLFKVGAGQKKIDKGQRAEEKTKFNSGDLGRKQSRPKKKDIVDEVQVKSGNNQTLIGPPGKNVDWIKLSSGNDAVVTLCKGDTWIKHTCNGPNVTLINVTKPYEGSYYGSSDDGSSHYKVTVYDLYKSNKSKSKVKPYTTKGTTVNATNANGLKNALQQDGESENDQESKIPSAT
**Q.** How did the Kd (CD45RO ECD) turn out when B8 was run?
**A.** 0.19 nM

**Q.** What about the Kd (SLAMF3 ECD) of the same binder?
**A.** 18 nM

B9: HAdV-D47 E3/49K (Fc fusion)
chain: EAETVIVDVKSGTNHTLEGPRKTPVQWYGGADFIMYCNGSKIHHKELNHTCSIQNITLTFINRTHHGTYYGFASDNQNSKVYHVRVDLEPPRPRATLAPPQDITIKYGSNRTLQGPNVTPVSWYDGEGNRFCDGDEIDHPELNHTCNAQNLTLLFVNETHERTYYGVSGDWKQRNEYDVTVIKTQNHKNAMQQKVEQKVEQKPSKRPKQKTLQTTIQVTIPIGSNYTLVGPSPPVSWHTTKNGLTELCNGNPILRHTCDGQNITLINVNATFEADYYGSNNNSESKHYRVKVFKQRKDQALLFRPLTTKGTTGGSTVNEQFALQQGNDKTNQNDEQIPSTT
**Q.** With B9 as the binder, how does the Kd (CD45RO ECD) read?
**A.** 0.01 nM

B10: HAdV-D9 E3/49K (Fc fusion)
chain: GIINLNVSWGMNLTLVGPSDLPVTWYDGKGMQFCDGNTIKNPQIKHSCNQQNLTLLNADKSHERTYLGYRHDSKGKVDYKVTVIPPPPATRKPLSEPHYVTVTMGDNITLVGPSDLPVTWYDGEGNKFCDGEKVEHAEFNHTCNIQNLTLLFVNLTHNGAYIGYNKDGSDRELYEVSVKTLFQNGAGQSKVEQGNKGKPNTAQSGGKKTKTEHRNQSPKRKSTNNLQPTQLYVRPFTNVSLTGPPNGKVTWYDGELNDPCEQKYKLRTFCNQQNLTLINVSSTYDGIYYGTDEKDKANRYRIKVNTTNHKTVKIKPHTREPPAVQEKQFELQDAETDENESKIPSAT
**Q.** B10 was tested. Which Kd (CD45RO ECD) did it give?
**A.** 0.08 nM

B11: HAdV-F41 CR1β (Fc fusion)
chain: AVPEKTLNNLVRVYALVGTNLSLDSMKTPQIDELTSLSWIKQEDNPNKNLQSFFFIGQKLCEVTKDKITVFNYYPLEFSCANVTLYLYNLKTDDSGLYNGKAHTKELEHNTYVRLYVIDIPPPKCDITSRYLGIQATGEDYCLIEINCTNSKYPAVVKFNGRQSNFYHYVSENGNKELPNFYETHITVNGTHKSFHFNYPFNDLCQTTSALQYNDNVQ
**Q.** With B11 as the binder, how does the Kd (SLAMF4 ECD) read?
**A.** 44 nM
